Test results reported in a protein production outcome set (Wang et al. 2014).

Assay: label from the status in PepcDB records

| Sequence | protein production |
| --- | --- |
| MPLTPGTLLAGRYELLALLGEGGSAQVYRAQDGLLGREVALKVMHDYLPESDRSRFLREVRTLARLTHPGVVPVLDLGQEPEAGRPFFTMPLLTGGPITRLGPLEDAPGPLARFLTAAAFASRALHHVHSHGIVHRDLTPGNVLLDDTGLPRIMDFGLVALSEQTRHLTRSGVTLGTPAYMAPEQAKGGGVDARSDLYALGAVLYRVACGSPPFVGDSDQSVLYQHVYEPVPDPRDLNPAVPDAVARVLLWLLAKRADRRPQSGAALAHLWALARRDLWTTHARGQYRGGRARTGEHPDGPARVSDMQELWSVALPGEVTWPAAVVGEGDLVAVGTRGGQLVLTHTSGRPFATYAARDEVTAPATLIGGHVLYGAWDGTLRRVELQSGSEVWRHQARAEFTGAPTVWGGRLLAPSRDGHLHALSLRTGELAWAYRAGGSLAASPLVWAGAALQCDETGWLHALDARSGTPLWKVEVGTVHATPALLPGPPGTATLVIATWEGEVHAIGLEVQNGRAALAGEDAIRWTYDVEDEVWASPALTALDLPPDSGAAPDASAAPGGVVVVAGWGGKVRGLRLADGEDLWERTLDGRVTASPVISAGLVFLATEGGELLALDVRNGEVRWTCRERSGVQATPLAASGTLYVAFMDGTLRAYRNAHPEWRSEQEG | failed |
| MVYFYPINDSRWYTFIHLFLYCKALKLLVVPNSKGVSPIFNQITIHNQHTENWLIIGLFCGAFVTGADAFIISALLPAIATSLHVPTNTAAYGVTVYALCYAIGAPLFGPLGDRFNKRFLLIRGCGIFLLGTLLCGLANSLLTFYLYRAIAGIGAALFVPNIWAFIGTYFNGQRLNQVMGIVMSALSLSIATGVPLGALLAQLSSWHMAFWGSAMLTLIALSILTIAIPSLPSQNAQPDGYFTSFKTLVHTPHAIAALLITLTWMTGFYGVYTFLGVFATATFHFNTMQTGLIFITYGSANFVASFFAGKLISLLGKKQSVTINGLVSATLVLSLGIWGQHLAVLLIILVVLALSQGWGVTALTATIVNIVPSNRSTIMSFNSAFLYYGLTLGSAAGGLLLTKIGFYAVTIAAATALLVAVLIANALSHYSD | failed |
| MSLIADHGFAFLVLACLFGFFMAWGVGANDVANAMGTSVGSRALTIRQAILVAMVFEFCGAYFAGGEVTETIRSGIVDPQYMTPDLLVFGMLSALLAAGVWLLLATIKGWPVSTTHSIVGAIIGFASVGVSVHAVHWGAIGPIVASWVVTPVLSGLLAFALFRSVQWLVLHAEDPFRSARRYVPLYMFLAGFMVALMTVGKGLKHVGLELSGLQTLGLALLAGGLVMGLGIVLLLRIRPTGGADPRGGFASVERVFAVLMIFTACSMAFAHGANDVANAIGPVAAVVAVVQAGGDLDLVSRSPVPSWVLLLGAVGIVIGLATYGYRVIATIGREITELTPSRGFAAELATASTVVGASAIGLPVSTTHTLVGAVLGIGMARGIGALNLRVIGSIFLSWVVTLPAGAVLAILFFLVLRALFGA | failed |
| MRTICVFNNKGGVGKTTLLCNLAAYFSIKRGKKVLVVDADPQCNATAYMIKEKVLDKLYASSSSDSATINSLIASLKKSKGYGIPPVLRSDGFNVDIVPGDPKFSLAEDFLAKDWLDAIAGDERGLRTTFFFRNLISWARSDGYDLVFFDMGPSLGAINRTVLLSSDHFILPMSSDIFSLRGLQNIEVALKNWTKGIERGLVSFKEDQGTSFKVESGDALSELGVSFLGYVTQQYTAKTVDGKKQPVSAYEKIIKKIDPLVSKHLILPLNKGQKLNYKLGEIPYFQSLVPMAQTATVPIFALKKADGVVGAHFDKVRQFDSVISGIVDKIEANMNSKGN | failed |
| MPSCAVEGNPSVHTPHPPRPLYPPRPAMPPGESDESLGGQLRGRPEGAAPHPVALLMARHWESTYDYAVICLASSANVASIVTAGAFQQVVGRLMRSGSAAAVRPALLVAVRDTVREWSAEERISGVLPELRKPAGGRGMRAAKSLTPENRVLAERSFLTLPGLSRCLLWHTEVEAESISVPAGLSGIGTDTATAALEQAREQFREGCVRAHRELAPTKECRLYNRLLDVPIRRGGALLPDVQRHLLGCRFCRNAAEQLSHFEGALGGLLAEAVLGWGARRYLESRPGRTPYGGRARGVSGSGGRPGSGGRHRLLAQIPAPGRRTPVGERGARAVLTGVGIASAAVLATFLVTGLWSNDDGNVDPTASTSASGGRTTVLPTPGSQIPPTVSSPPDSAGLPTTPRQTRLRNLAADLCLDVRGEAKAGAGTKLAVCSSAWTQQWTYEKDGLLRSVADPELCLDSGAVDGVAELGRCVAESSAHGGDVRYDLTVQGEVLSRRKGSLAVTPGNTDPDADIVVKVRDGSDKQRWLTDSPSDQPESLSIAGTTPPSATPATDAPAATPAPTPVPASPGTRLTDAPVASSAPPSENYGERRSLTVTDTSTPEPVLPLTVHLPDLLGEIGVGL | failed |
| MKKIISLALALALSASAAELKMATTTSTDNTGLLDALKPLYEKESGNTLKWVAVGTGAALKMGEDCNADVLFVHSPKAEKEFMKKGFGVDRTPVMYNDFIIIADKSLASKFKGKNLKESLELIKNEKLTFISRGDKSGTDNKEKSLWKNLGGVPEKQSWYQQSGQGMLASIKIAEEKKGVILTDRGTYIKYEANEKGKPNLVIVNEGDDSLKNFYSVIATNPKHCKNVNYTEASKFIKWVTSDKTLNFIADFKLLNKPLFVIDAKTRKD | failed |
| SPNPPKLTKQMNAIIDTVINYKDSSGRQLSEVFIQLPSRKELPEYYELIRKPVDFKKIKERIRNHKYRSLGDLEKDVMLLCHNAQTFNLEGSQIYEDSIVLQSVFKSARQ | not failed |
| MAILVDVRAAREIQDGEAGCRWERPLALGQGAFYAATGAWPLVHMPSFVAVTGPKLEPWLVRTVGVLIGAIGGTLLSAGARRRITPEVRWLALASAAGIAAVELWYAGRRRRIAPVYLLDGAGELALAAAWAALGAGRRLRGGVGTVAGGRGRHGREEDAR | failed |
| MTTAKRDTYTPETLLSVAVQVFIERGYDGTSMEHLSKAAGISKSSIYHHVTGKEELLRRAVSRALDELFGILDEEHARVGTAAERLEYVVRRMVEVLMAELPYVTLLLRVRGNTGTERWALERRREFDHRVAALLKDAAAEGDVRADVEVRLATRLVFGMINSIVEWYRPEGPDGRSDASGASGVSGAGEREVVDAVARLVFGGLRKAS | not failed |
| MWNGREYMSEPASPEKKVIIIAGPNGAGKTTFAEEFLPQEAQCLTFINADLIAAGLAPFEPEQAAFRAGRLMLEEIYNHAQRGQNFAFETTLSGRSYARLIPTWQAQSYIVKLFFLQLLSPELAIARVAQRVRAGGHHVPEAIIRRRFAAGLHNLETLYKLIVDEWVCYDNSGNEPVLINKGGKLLEHHHHHH | not failed |
| MGRLGWVDPESFMQRNHELMDAYSAGKLAMEEFMAFSLEPMAGRTPEEVDHLVGPWVEDVIEPIIYSDACKCIAQHRAKGDRILVISASGVHLVKPIAERLGIDEVLGIELDVQHGVYSGATVGVLTYREGKITRLMEWLDAEGENLEGASFYSDSRNDLPLLLKVDHPNVVNPDPVLLEHAQQAGWPVHTWV | failed |
| MASGLFENDGIKDNKARDFFYSHSSLIVFFLLLLGFGYYLGKLLFGGSSLEVYLDLRDKHERLQQEITELQSKNVRLQKRLFELKELRPRD | failed |
| MVEPMTPRFKYTKASQENIQQLGNILEQCFVMSFGDSEIYVKGIGLENFRVIYREQKVAGGLAILPMGQWWGGQRVPMAGIAAVGIAPEYRGDGAAIALIQHTLQEISEQDIPISVLYPATQRLYRKAGYEQAGSSCVWEIPTDSIQIQHASLPLEPVVLKNNPIFHELYQQQAQLTHGYLDRHPAIWQGLNRTLDTETLYSYLIGDKDKPQGYIIFTQERTRDGSILRIRDWVTLSNPAVQSFWTFIANHRSQIDKVTWKSSVIDALTLLLPEQSATIRSQDRWMLRIVNVCKALEARGYPLGVEAELHLEVQDDLLATNQGKFILSVANGKSEVTKGGKGELQLDIKGLASLYTSLFTPRQLQLTGKLQATETALLKATQIFAGESPWMIDFF | not failed |
| MKQTAESIRDRFMKLGIDVPVEDIESRLDELIKKFKVPSNEAQRSVTNYFLKKYSIPKNEFYVRQAEPQLTKIVDIVENGQWANLKAKVIQLWENTHESISQVGLLGDETGIIKFTIWKNAELPLLEQGESYLLRSVVVGEYNDRFQVQVNKNSSIEKLSEPIEVGGGDFTPAAREAELRNIADLTGNQWATVRGKVIQLWENSHESIEQAGLIGDETGVIKFTNWASSELPDMEEGRSYLLKNVVVNEWNGKAQVQLNRSSSIEELDEDIEVRTSMSSYFGAMVDIQTGSGLIKRCPECKRALVKGACAEHGKVKGEYDLRIKAVLDSGTSTQDALINRELTEELSGISLDSAIAMAADALDPGVVLDKLKHELVGRYYTITGHKLDRYILVESITPRTSLDRELLDQMLAEPIAQPEVELEHHHHHH | not failed |
| MFAPQGLAQFIKVNVTLENGEPVFIYTDANGQVCQGDITVTQAGTITYLLNDQTLKGLKFVGVGFVTPFDGIIDAVTISSDGMLVQLVDLDKTPGTTKFQFVLSNTANTLLVLSPDPQIINRPQN | not failed |
| SSALSRNGSFITKEKKDTVLRQVRLDPCDLQPIFDDMLHFLNPEELRVIEEIPQAEDKLDRLFEIIGVKSQEASQTLLDSVYSHLPDLL | not failed |
| MASHQEQSYKAGETRGKAQEKTGEAMGTMGDKTQAAKDKTQETAQSAQQKAHETAQSAKDKTSQAAQTTQERAQESKDKTGSYMSETGEAIKNKAHDAAEYTKETAEAGKEKTSGILGQTGEQVKQMAMGATDAVKHTLGLRTDEGNKEHVSSAPSTTTTTTTRETQRK | failed |
| MTHCADNGAPLAARQSAARARMSLPVDSPDAATAADSLPPAPAPRPRAPASLVVLATLAVGYTLWAAQTIILPIMLAAFFALIGNPILRGLRKLYIPRFLGALLILCLGLAGTVTLAAQLAGPAAEWVQQAPRQMRQIARDVRDLTKPVMQANQAAENFARAAGGEGQRGVQIVRTQMDDPYKALVRTPKLAASVLAVVLLTFFFMVYGESLQRHAIALLPNRQQQRFTTEIMLDIEREVSRYVLTISVINTLVGLVFAGILYVLQIPLPEAILWGTVVALLNFAPYVGPLIGVMLMLLMGFVEFRTTLSSLLPAILYLALHTIEGQVVTPIVLGRRMAISPLMLILALMLFGWLWGMVGLLLAVPLLVCIKMVLSRVDGMQRWARLLE | failed |
| MSEFLALFSAMWKESWRDKISTFFSIAFPVMFLLIFGFLFGGSGNSVKTAVVTVDYDLSDFGDVYTSLEELKGYYHEVAVVEKERIIFIRNTTDEYYQSLLDSWEISLKNKVTRLLNGLNPVIMVKKEVLKTARELTSFDYTLTGVIAVSLLSIGLFGTVDVFSRYRERGFLKRLKATPVGNFSFVFGLISARMFYGILSTALIMLLGTLIFKASYELNVFLFLISVVSSVLSFIALGALISILFKKSDVATDAAVILFTIMMFLTGVYFPVSFLPDYLRVVSYFLPVKYGVELIRYSLGFEIFPFSRYLITAVIMFLAGLMFVFYTASLVLRKED | failed |
| MNCRKTALLKTGRVARLVLCSAMLGAAIPTMALAIGGASGAHVDYQVQGKLGEVIMNPYDIAPLTAIIKNGGYVLKDVTVRIVPKKDGQEIKYQVANKHLLTHGGIPVFGMYPDYVNTVEVEYSRLYNGKWEQAKESYTLYTPPVYTEPNATKTQKAALFSGADVKKVDKKFSDRLYFVNNFLHKAGKGTRAVWNNPTGGALEWNYYPQNFIVDTKGEVRWYMNANPIYDLKSIYNAGVMMGFKQNNDGAMSWGFGQRYVKYDIMGKEVFNRELPAGYNDFSHSMDNSPNGNYFLRVGSSNLKRADGKNVRTVRDVIIEVDPSSGLVQDEWRLFDILDPYRDVNFKVLDQGAVCLNIDASKAGHTMSAEDLAKQDANDKFGDIVGVGPGRNWAHVNSVDHDAEDDSIIISSRHQSAVIKIGRDKQIKWIMGSPEGWKKEYQGKLLTPVDSKGNKIECEAGGSKCPGYENDEGGFDWTWTQHTAFKIDSKSKGDIIYVSVFDNGDSRGMEQPALPSMKYSRAVIYKIDQKKMTVEQIWEFGKERGNGWYSPVTSLTEYQTDKDSVFVYSATAGADFDINTGAFKTDPNPYIMEFNYGSKEPAVEIQLKDTTGYQAMPFSVDKAFTK | failed |
